In patent publication US8487082B2, “Synthetic scFv analogue to the 6313/G2 (anti angiotensin II type 1 receptor) monoclonal antibody variable regions” (Queen Mary & Westfield College, priority 2008, dated 2013):
Substitutions are numbered along the chain they refer to. Entries after “also recorded” stand apart in the source; their conditions may differ.

B1: HuCY: humanised (resurfaced) variant of scFv R6313/G2, SEQ ID NO:27 (protein)
scFv: QVQLVQSGPELVKPGASVKISCKASGYSFTGYNMNWVKQAPGKSLEWIGNIDPYYGGTTYNQKFKGKATLTVDKSSSTAYMQLKSLRSEDTAVYYCAREVDYWGQGTTVTVSSGGGGSGGGGSGGGGSDIVLTQSPASLAVSLGERATISCRASKSVSTSGYSYMHWYQQKPGQPPRLLIYLVSNLESGVPDRFSGSGSGTDFTLTISSVEAEDVAVYYCQHIRELTRSEGTKLEIKR
modifications: HuCY
B2: var4: humanised variant of scFv R6313/G2 with two further changes in VLCDR2 (LVSDLED), SEQ ID NO:29 (protein)
scFv: B1 scFv with S44G, N185D, S188D
modifications: var4
B3: var3: humanised variant of scFv R6313/G2, framework changes only, SEQ ID NO:28 (protein)
scFv: B1 scFv with S44G
modifications: var3

What was measured:
[1] = tested on: MCF-7 cells; assay: Cell viability assay (XTT); assay type: cell-based; settings: MCF-7, Losartan alone, all concentrations used
Protocol: (§1) MCF-7, T47D and MDA-MB-231 breast cancer cells were obtained from The American Tissue Culture Collection (LGC Promochem, Teddington, UK). Rat aortic smooth muscle cells (RASMC) were developed from primary culture (Barker et al., 1996). MCF-7 cells were maintained in Minimal Essential Medium (MEM), T47D and MDA-MB-231 cells in RPMI 1640 medium, and RASMC were maintained in Dulbecco's Modified Eagle's Medium (DMEM). All media were supplemented with 2 mM L-glutamine, 10% fetal bovine serum (FBS), 50 U/ml penicillin and 0.05 mg/ml streptomycin. Cells were maintained at 37° C. in a humidified atmosphere ([…], 5% CO2).
(§2) Confluent cell monolayers were removed from tissue culture flasks using trypsin/EDTA. Cells (15×10^3 per well) were seeded into 96 well tissue culture plates containing the appropriate medium for each cell line. […] Cell viability was assessed by the ability of metabolically active cells to reduce 2,3-bis[2-Methoxy-4-nitro-5-sulphophenyl]-2H-tetrazolium-5-carboxyanilide inner salt (XTT) to the coloured formazan product. Absorbance was measured using a Multiskan Ascent microplate reader (Thermo Labsystem, Helsinki, Finland) at a wavelength of 450 nm and a reference wavelength of 630 nm. Each measurement was performed in triplicate. IC50s were calculated using a non-linear regression formula using GraphPad Prism v4.0 software (GraphPad Software Inc, San Diego Calif., USA).

[2] = tested on: T47D cells; assay: Cell viability assay (XTT); assay type: cell-based; settings: Homo sapiens, Losartan alone, 25 μmol/L
Protocol: as §1, §2

[3] = tested on: MDA-MB-231 cells; assay: Cell viability assay (XTT); assay type: cell-based; settings: MDA-MB-231, Losartan alone, all concentrations used
Protocol: as §1, §2

[4] = tested on: T47D cells; assay: Apoptosis - caspase-3/7 activity; assay type: cell-based; settings: 100 nmol/L angiotensin II, 12 hours
Excerpt: Cells were harvested using Trypsin/EDTA and counted.

[5] = target: peptide antigen EDGIKRIQDDC-biotin (from AT1-receptor N-terminal region) (Rattus norvegicus, UniProt P25095); assay: Antigen binding ELISA of scFv variants; settings: for activity in ELISA compared with murine scFv (12D): FIG. 13, indirect comparison against purified IgM; for binding to peptide antigen by ELISA versus murine scFv (12D and 11B): absorbance 450 nm per mg protein/well, FIG. 12
Protocol: Enzyme-linked immunosorbant assays (ELISAs) were carried out in Maxisorp 96-well plates coated with Peptide antigen EDGIKRIQDDC-biotin (SEQ ID NO:14) (2-8 ug/ml in carbonate buffer pH 9.6) overnight at 4 or 37 C. The coated wells were blocked using 1% alkaline soluble casein (Blocking buffer) for 1 h at RT, then washed three times with PBS containing 0.1% v/v Tween 20. ScFv samples diluted between 1:1 to 1:100 in PBS-T were added and incubated for 1 h at RT before washing as before. A secondary HRP-conjugated anti-His-Tag antibody was then added (diluted 1:1000 in blocking buffer) for 1 h at RT. Wells were then washed three times in PBS-T then twice with PBS (without Tween 20). 100 μl of TMB substrate solution was added and colour was allowed to develop for 30 min, at which time 100 μl of 2M sulphuric acid was added to stop the reaction. Absorbance at 450 nm was read on a plate reading spectrophotometer. Protein concentrations were determined using an Eppendorf Biophotometer reading at 280 nm and using an extinction coefficient for the scFv of 1.7 as above.

[6] = target: biotinylated peptide antigen (AT1 receptor) (Rattus norvegicus, UniProt P25095); assay: Quartz crystal microbalance binding (Attana 100); settings: 9 μg/ml, 100 second injection period
Protocol: Data were obtained comparing the characteristics of binding of the scFv variants and IgM to immobilised peptide antigen using the Attana 100 Quartz Crystal Microbalance. This involved use of a streptavidin (0.1 mg/ml)-coated biotin “chip” (gold-plated quartz crystal in an Attana 100 Biosensor (Quartz crystal microbalance (QCM)) (Attana AB, Stockholm, Sweden). Peptide antigen corresponding to that sequence used to raise the original murine hybridoma, biotinylated at the C-terminus, was then run across the chip at a concentration of 4 μg/ml to create a binding target for scFvs and IgM that were subsequently run across the surface of the QCM chip. Attester software (Attana, Sweden) was used to monitor changes in resonance frequency of the QCM chip in response to binding of a test antibody to the antigen. The magnitude of deflection in Hz over the period of sample injection of 100 s in Hz/second was determined for each antibody at a concentration of 9 μg/ml. The rate at which the antibody was then released from the QCM chip was also measured in Hz/second from the straight-line portion of the biosensor trace as antibody gradually departed from the chip and as the resonance frequency of the chip decreased. Running buffer was PBS containing 0.005% Tween 20 (PBST) and this was also used to make antibody dilutions to give a final protein concentration of 9 μg/ml in each case. The Attana 100 was set up with a 50 μl injection loop and was running with a constant pump speed of 20 μl/min. Samples and PBST buffer controls were injected over 100 seconds giving a sample volume across the chip of 33 μl. 100 mM (6.6 μl volume) phosphoric acid solution was used to regenerate the strepavidin-antigen surface between individual experimental sample runs.

Molecule	activity in ELISA compared with murine scFv (12D) [5]	binding to peptide antigen by ELISA versus murine scFv (12D and 11B) [5]	change in resonance frequency (apparent on-rate, Hz/second) compared with IgM [6]	also measured
CCCCc1nc(Cl)c(CO)n1Cc1ccc(-c2ccccc2-c2nn[nH]n2)cc1 [Losartan, reference compound]				effect on cell survival [1]: unaffected; inhibition at 25 µM [2]: 43%; effect on cell survival [3]: unaffected
angiotensin II (DRVYIHPF; Angiotensin-2; UniProt P01019 25-32, looked up) [peptide hormone added at 100 nmol/L in the cell assays, reference compound]				caspase-3/7 activity compared with untreated control [4]: inhibited caspase-3/7 activity
B1	higher activity	more strongly; also recorded: increased binding		
B2	higher activity	more strongly; also recorded: increased binding; also recorded: most significantly increased binding	significantly greater increases in resonance frequency; also recorded: significantly greater changes in resonance frequency	increase in binding to the antigen compared with murine scFv ([5]; ELISA, same amount and purity of scFv): 5-10 fold
B3		more strongly; also recorded: increased binding	significantly greater increases in resonance frequency; also recorded: significantly greater changes in resonance frequency	
